Measurements: patent US20220315554A1, “COMPOUNDS COMPRISING A […] LIGAND AND USE THEREOF” (priority 2019, published 2022)
Bridge positions count the residues as written; N and C are the ends. * marks the point of attachment. tMeBn(DOTA-AET) = Cys-Cys bridge (thioethers) carrying DOTA-AET; tMeBn(DOTA-PP) = Cys-Cys bridge (thioethers) carrying DOTA-PP; Hexanoyl = CCCCCC(=O)*

Columns and labels:
Experiment in all cases: radioligand displacement, 10 uM compound
Settings in all cases: remark: other sources report otherwise
[1] = molecular target: 5-HT transporter (h) (human (printed (h))), P31645
[2] = molecular target: T1, alpha 1A (h) (human (printed (h))), P35348
T1 chain: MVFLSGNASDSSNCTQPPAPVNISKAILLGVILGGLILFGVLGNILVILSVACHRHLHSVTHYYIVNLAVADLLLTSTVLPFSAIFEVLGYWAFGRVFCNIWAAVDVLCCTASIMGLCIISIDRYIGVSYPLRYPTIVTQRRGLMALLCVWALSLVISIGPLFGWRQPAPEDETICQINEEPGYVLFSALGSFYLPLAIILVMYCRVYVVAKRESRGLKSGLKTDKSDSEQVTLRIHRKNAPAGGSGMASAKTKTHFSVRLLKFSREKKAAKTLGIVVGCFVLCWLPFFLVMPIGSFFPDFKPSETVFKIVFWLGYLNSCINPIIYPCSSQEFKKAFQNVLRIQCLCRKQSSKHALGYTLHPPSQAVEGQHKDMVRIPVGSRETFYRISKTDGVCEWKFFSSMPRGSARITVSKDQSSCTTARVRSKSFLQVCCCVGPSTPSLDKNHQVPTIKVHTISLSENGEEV

[3] = molecular target: T2, AR (h) (human (printed (h))), P10275
T2 chain: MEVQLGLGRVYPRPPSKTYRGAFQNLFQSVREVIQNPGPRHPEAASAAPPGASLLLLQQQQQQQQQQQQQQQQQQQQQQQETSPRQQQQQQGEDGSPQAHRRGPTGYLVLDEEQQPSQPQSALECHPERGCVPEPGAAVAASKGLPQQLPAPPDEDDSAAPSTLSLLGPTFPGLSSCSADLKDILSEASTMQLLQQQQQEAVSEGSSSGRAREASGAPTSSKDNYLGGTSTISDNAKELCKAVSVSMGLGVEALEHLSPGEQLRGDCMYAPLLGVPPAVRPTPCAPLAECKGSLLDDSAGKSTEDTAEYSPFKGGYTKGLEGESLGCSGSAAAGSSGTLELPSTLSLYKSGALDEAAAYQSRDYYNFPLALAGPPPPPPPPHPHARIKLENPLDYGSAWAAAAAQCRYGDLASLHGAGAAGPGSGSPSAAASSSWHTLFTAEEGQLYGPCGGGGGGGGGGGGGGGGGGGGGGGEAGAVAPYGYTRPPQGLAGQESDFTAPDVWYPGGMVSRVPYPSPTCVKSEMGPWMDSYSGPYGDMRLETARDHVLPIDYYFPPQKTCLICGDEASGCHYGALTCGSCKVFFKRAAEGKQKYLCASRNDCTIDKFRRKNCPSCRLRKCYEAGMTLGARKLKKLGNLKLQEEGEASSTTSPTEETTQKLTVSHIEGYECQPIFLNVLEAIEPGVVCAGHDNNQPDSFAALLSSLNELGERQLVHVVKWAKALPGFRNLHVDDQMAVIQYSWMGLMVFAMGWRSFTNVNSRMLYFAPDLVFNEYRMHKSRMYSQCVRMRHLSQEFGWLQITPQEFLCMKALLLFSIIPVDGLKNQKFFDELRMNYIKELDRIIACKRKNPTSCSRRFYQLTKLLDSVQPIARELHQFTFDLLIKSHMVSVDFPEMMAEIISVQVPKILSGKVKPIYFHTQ

[4] = molecular target: T3, M1 (h) (human (printed (h))), P11229
T3 chain: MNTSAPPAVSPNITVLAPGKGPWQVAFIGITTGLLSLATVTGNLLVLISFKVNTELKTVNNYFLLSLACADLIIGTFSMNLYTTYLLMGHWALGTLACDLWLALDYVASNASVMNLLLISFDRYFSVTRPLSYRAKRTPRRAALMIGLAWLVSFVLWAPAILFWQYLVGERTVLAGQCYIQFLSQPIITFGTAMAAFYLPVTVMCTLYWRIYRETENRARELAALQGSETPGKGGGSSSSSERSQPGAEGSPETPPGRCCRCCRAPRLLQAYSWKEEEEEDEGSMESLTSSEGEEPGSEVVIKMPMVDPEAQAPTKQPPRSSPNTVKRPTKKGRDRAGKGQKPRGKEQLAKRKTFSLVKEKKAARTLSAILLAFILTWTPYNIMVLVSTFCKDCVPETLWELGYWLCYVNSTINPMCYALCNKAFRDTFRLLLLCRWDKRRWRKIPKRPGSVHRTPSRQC

[5] = molecular target: 5-HT2B (h) (human (printed (h))), P41595
[6] = molecular target: T4, CB1 (h) (human (printed (h))), P21554
T4 chain: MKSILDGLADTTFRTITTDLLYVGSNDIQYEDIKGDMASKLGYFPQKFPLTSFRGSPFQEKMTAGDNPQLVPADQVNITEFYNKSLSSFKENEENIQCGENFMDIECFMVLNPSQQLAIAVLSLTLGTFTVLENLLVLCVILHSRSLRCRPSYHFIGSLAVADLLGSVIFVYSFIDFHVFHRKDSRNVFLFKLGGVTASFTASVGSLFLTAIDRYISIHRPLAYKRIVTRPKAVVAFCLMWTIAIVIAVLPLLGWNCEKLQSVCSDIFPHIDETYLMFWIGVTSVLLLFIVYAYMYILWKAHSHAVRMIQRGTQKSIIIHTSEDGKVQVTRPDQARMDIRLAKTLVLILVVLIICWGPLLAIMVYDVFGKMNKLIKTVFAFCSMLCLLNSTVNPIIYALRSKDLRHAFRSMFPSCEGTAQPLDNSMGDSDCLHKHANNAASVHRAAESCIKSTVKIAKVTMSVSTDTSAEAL

[7] = molecular target: beta 1 (h) (human (printed (h))), P08588
[8] = substrate: N neuronal alpha 4beta 2 (h) (human (printed (h))), P43681
[9] = molecular target: 5-HT1B (h) (human (printed (h))), P28222
[10] = molecular target: CB2 (h) (human (printed (h))), P34972
[11] = molecular target: kappa (h) (KOP) (human (printed (h))), P41145
[12] = molecular target: beta 2 (h) (human (printed (h))), P07550

5-HT1B (h) (human (printed (h))), P28222, sequence (P28222 whole entry): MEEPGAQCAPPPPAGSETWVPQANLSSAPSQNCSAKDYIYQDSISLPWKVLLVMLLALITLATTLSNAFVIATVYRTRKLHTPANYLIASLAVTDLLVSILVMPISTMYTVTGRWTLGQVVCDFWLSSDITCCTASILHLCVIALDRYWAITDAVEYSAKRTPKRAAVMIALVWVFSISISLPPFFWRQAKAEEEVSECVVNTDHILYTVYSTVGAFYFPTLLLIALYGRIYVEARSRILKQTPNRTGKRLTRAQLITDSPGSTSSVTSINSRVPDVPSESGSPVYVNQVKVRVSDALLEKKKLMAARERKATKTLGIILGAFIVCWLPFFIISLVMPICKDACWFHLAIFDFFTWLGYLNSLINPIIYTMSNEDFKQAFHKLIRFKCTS

Row | Binder | % Inhibition of Specific Binding [1] | % Inhibition of Specific Binding [2] | % Inhibition of Specific Binding [3] | % Inhibition of Specific Binding [4] | % Inhibition of Specific Binding [5] | % Inhibition of Specific Binding [6] | % Inhibition of Specific Binding [7] | % Inhibition of Specific Binding [8] | % Inhibition of Specific Binding [9] | % Inhibition of Specific Binding [10] | % Inhibition of Specific Binding [11] | % Inhibition of Specific Binding [12]
1 | Hexanoyl-CPPTQFCD-NH2 (linker 1-7 via tMeBn(DOTA-PP)) [Hex-[Cys(tMeBn(DOTA-PP))-Pro-Pro-Thr-Gln-Phe-Cys]-Asp-NH2 (3BP-3407)] | -3% | 2% | 3% | 6% | 2% | 5% | 4% | -8% | -11% | 2% | 7% | 4%
2 | Hexanoyl-CPPTQFC-OH (linker 1-7 via tMeBn(DOTA-AET)) [Hex-[Cys(tMeBn(DOTA-AET))-Pro-Pro-Thr-Gln-Phe-Cys]-OH (3BP-3554)] | -8% | -12% | -5% | 8% | 3% | -7% | -13% | -2% | 8% | -5% | 10% | 8%
